Consider one substance from article doi:10.1101/2023.01.01.522448.

Where “and” joins values, the source holds several entries; their conditions need not be identical. Identical values can stand only once.

Test [1] has as its target recombinant L-asparaginase from Pseudomonas resinovorans IGS-131 (PrASNase) (Pseudomonas resinovorans IGS-131). As to the kind of experiment: SEC.
Test [2] has the same target. As to the kind of experiment: SAXS.
The target is the same in test [3]. Put plainly: SEC. This is another data set of the same source. Background: Size exclusion chromatography separates by hydrodynamic size, large species first.
For test [4] the target is unchanged. As to the kind of experiment: cross-linking + SEC.
The target is the same in test [5]. As to the kind of experiment: AUC.

Regarding “recombinant L-asparaginase from Pseudomonas resinovorans IGS-131 (PrASNase) (enzyme)”, the stoichiometry N is 2 in test [1]; 2 and 4 in test [2]; 2 in test [3]; 2 in test [4]. For the same substance, in test [5], the percent present as dimer is 4.8%. Also, the percent present as monomer in test [5] was determined as 94.9%.

The stoichiometry N is the number of molecules, sites or subunits per partner or assembly.
